In patent US12653899B2, “Multi-targeted, tunable, sustained delivery of payloads to charged avascular tissues” (Massachusetts Institute of Technology, priority 2019, dated 2026):

Assays:
[1] = test system: human cartilage explants (knee); assay: Quantitative uptake of cationic S-GFPs into human knee cartilage explants; assay type: in vitro ADME; conditions: donor knee; PBS+1% BSA or BSF
Excerpt: Two human knee joint distal femurs were obtained through the Gift of Hope Organ and Tissue Donor Network (Itaska, IL). A Collins grade 0 normal knee was from a donor and a near-normal grade 1 from a person. (The Collins visual grading scale grades spans grades 0-4 [20], with grade 0=normal and grade 4=end stage osteoarthritis.) All procedures were approved by the Rush University Medical Center Institutional Review Board (ORA Number: 08082803IRB01-AM01) and the Committee on the Use of Humans as Experimental Subjects at MIT. […]
Experiments to quantify the uptake of GFPs into cartilage were started after the explants had been pre-equilibrated in culture medium for 48 h post-harvest. […] (Standard 96-well cell culture plates were not used because S-GFPs could stick to polystyrene even in the presence of BSA, leading to a loss of protein. In contrast, use of polypropylene with 1% BSA enabled complete recovery of fluorescence). […] At the same time, the fluorescence of the absorption bath was measured using a plate reader (Synergy H1, Biotek Instruments Inc.) (excitation: 485 nm, emission: 528 nm). […] At the end of the desorption in 10×PBS+1% BSA, cartilage explants were weighed and the fluorescence of the desorption bath was measured. […] The uptake ratio was calculated as the ratio of GFP concentration inside cartilage (mol/mg wet weight) to the final absorption bath concentration (mol/mL).

[2] = test system: bovine cartilage explants; assay: GFP penetration into bovine cartilage explants (confocal microscopy); assay type: in vitro ADME
Procedure: Bovine cartilage explants were incubated for either 24 h or 8 days (37° C., 5% CO2) in 1 μM solutions of the cationic S-GFPs dissolved in PBS+1% BSA. Similarly, explants were placed in 1 μM solutions of the neutral GFPs for either 18 h or 26 h. In a separate series of experiments, bovine cartilage explants were cultured in ultra-low attachment cell culture plates (Corning) for a period of 8 days in 1 μM solutions of cationic S-GFPs dissolved in low glucose (1 g/L) DMEM (with no phenol red) with 10% fetal bovine serum (FBS) supplemented with 2 mM Lglutamine, 100 U/mL penicillin, […] streptomycin, […] amphotericin, 10 mM HEPES buffer, 0.1 mM nonessential amino acids (NEAA) and 0.4 mM proline (37° C., 5% CO2). Media changes were performed every 48 h, and fresh cationic S-GFP were added with each media change. At the end of all such experiments, explants were sectioned longitudinally into […] slices and washed with PBS. Primary bovine chondrocytes were incubated for 24 h (37° C., 5% CO2) in 100 nM solutions of GFPs dissolved in serum-free medium having the same composition as that described in the bovine cartilage harvest section. At the end of 24 h, chondrocytes were washed three times with heparin dissolved in PBS (20 U/mL) to remove non-internalized GFPs, fixed with 4% paraformaldehyde, stained with DAPI and washed with PBS. […]

| Substance | 24 h uptake ratio compared among cationic S-GFPs [1] | extent of penetration into cartilage explant ([2]; 24 h in PBS+1% BSA, 1 mm thick bovine explants) | localization within cartilage explant ([2]; by day 8 in PBS+1% BSA, bovine explants) |
| --- | --- | --- | --- |
| +36 GFP: engineered supercharged green fluorescent protein carrier with net positive charge +36, SEQ ID NO: 4 | significantly lower compared to the other two GFP variants | did not | localized primarily inside chondrocytes throughout the tissue thickness |
| +25 GFP: engineered supercharged green fluorescent protein carrier with net positive charge +25, SEQ ID NO: 3 | significantly lower compared to the other two GFP variants |  |  |
